Measurements: the nanobody polyreactivity screen of Harvey et al. (2022)

assay: yeast display, Sf9 membrane polyspecificity reagent, FACS + sequencing; frameworks hold sequencing errors
In short: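 Galactose induction of a Saccharomyces cerevisiae BJ5465 synthetic nanobody display library ran 36–48 hours. The cells were then stained for 1 hour at 4 °C with 10% biotinylated, detergent-solubilized Sf9 membrane reagent, pulled down on streptavidin microbeads and FACS-sorted into low and high (top ~1%) gates on expression and reagent-binding fluorescence. Labels for polyreactivity follow the gate of origin.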

Sequence	polyreactivity (PSR sort gate)
QVQLVESGGGLVQAGGSLRLSCAASGSTFERYAMGWYRPAPGKERELVAAISAIGDSTYYADSVKGRFTISRDNAKNTVYLQMNSLKPEDTAVYYCAARYTRYHIGRGYYYWGQGTQVTVSS	high polyreactivity
QVQLVESGGGLVQAGGSLRLSCAASGSTFESNAMGWYRQAPGKERELVAAISSSGGSTYYADSVKGRFTISRDNAKNTVYLQMNSLKPEDTAVYYCNKGGLSDYDYWGQGTQVTVSS	high polyreactivity
QVQLVESGGGLVQAGGSLRLSCAASGSTFESNAMGWYRQAPGKERELVAAISTSGGSTYYADSVKGRFTISRDNAKNTVYLQMNSLKPEDKAVYYCNAYPEAVRWKYNYWGQGTQVTVSS	low polyreactivity
QVQLVESGGGLVQAGGSLRLSCAASGSTFESNTMGWYRQAPGKERELVAASSYSGGRTYYADSVKGRFTISRVNAKNTVYFQMNILKPEDTAVYSCAARWSVSYRMYYWGQGTQVTVSS	high polyreactivity
QVQLVESGGGLVQAGGSLRLSCAASGSTFETYAMGLYRKAPGKDRELVAAITWAGDTSYADSVKGRFTISRDNAKHTVYLQMNSLKPEDTAVYYCAKDNGRAYFGRSPYDYWGQGTQVTVTS	low polyreactivity
QVQLVESGGGLVQAGGSLRLSCAASGSTFEVYAMGWYRQAPGKERELVAVINVSDGSTYYADSVKGRFTISRDNAKNTVYLQMNSLKPEDTAVYYCAAYLYNRPYQLTGYYDGYGYWGQGTQVTVSS	low polyreactivity
QVQLVESGGGLVQAGGSLRLSCAASGSTFEVYTMGWSIQSPGKVRELVATISGDDGSTYYADSVKGRFTISRDNAKNTVYLQMNSLKPEDTAVYYCAADYGGFPNYYSTGDYWGQGTQVTVSS	low polyreactivity
QVQLVESGGGLVQAGGSLRLSCAASGSTFEWNAMGWYRQAPGKERELVAAISWRTTRTYYADSVKGRFTISRDNAKNTVYLQMNSLKPEDTAVYYCAVVTSPYYGGYEYWGQGTQVTVSS	high polyreactivity
QVQLVESGGGLVQAGGSLRLSCAASGSTFEYNAMGWYRQAPGKERELLADISYSDGSTYYADSVKGRFTISRDNAMNTVYLQMNSLKPEDTGVYYCAAYSGYGGVSMYYWGQGTHVTVSS	low polyreactivity
QVQLVESGGGLVQAGGSLRLSCAASGSTFEYNAMGWYRQAPGKERELVASSTNYADSGKGRFTISRDNAKNTVYLQMNSLKPEDTAVYYCAREQGVNRNHDYWGQGTQVTVSS	low polyreactivity
QVQLVESGGGLVQAGGSLRLSCAASGSTFEYNAMGWYRQAPGKERELVASSTNYADSVKGRFTISRDNAKNTVYLQMNSLIPEDTAVYYCAREQGVNRNHDYWGQGTQVTVSS	low polyreactivity
QVQLVESGGGLVQAGGSLRLSCAASGSTFEYNAMGWYRQAPGKERELVASSTNYADSVKGRFTISRDNAKNTVYLQMNSLKPEDTAVYYCAKTYWYPYGYWGQGTQVTVSS	low polyreactivity
QVQLVESGGGLVQAGGSLRLSCAASGSTFEYNVMGWYRQAPGKERELVAAITSGASTNYADSVKGRFTISRDNAKNSVYLQMNSLKPEDTAVYYCAAGESGSFFIYYYWGQGTQVTVSS	low polyreactivity
QVQLVESGGGLVQAGGSLRLSCAASGSTFEYYAMGWDRQAPGKERELVAAISITGGSSYYADSVKGRFTISRDNAKNTVYLQMNSLKPEDTAVCYCAASVPLARRLGYPWRRAGYNYWGQGTQVTVSS	high polyreactivity
QVQLVESGGGLVQAGGSLRLSCAASGSTFEYYAMGWYRQAPGKERELVAAISTAGSTYYADSVKGRFTISRDNAKNTVYLQMNSLKQEDTAVYYCAVDPSPRSYYNYYWGQGTQVTVSS	high polyreactivity
QVQLVESGGGLVQAGGSLRLSCAASGSTFEYYAMGWYRQAPGKERELVAGISTGGSTNYADSVKGRFTISRDNAKNTVYVQMNSLKTEDSAVYYCKRDWALYVFCRHYHAYYSWGQRTQVTVSS	low polyreactivity
QVQLVESGGGLVQAGGSLRLSCAASGSTFEYYAMGWYRQAPGKERELVATISIDGRTNYADSVKGRFTISRDNAKYTVYLQMNSLKPEDTAVYYCAASDLTAISSKYDYWGQGTQVTVSS	low polyreactivity
QVQLVESGGGLVQAGGSLRLSCAASGSTFFDYAMGWYRQAPGKERELVAAISRSGDTNYADSVKGRFTMSRDNAKNTVYLHMNSLKPEDTAVYYCAKYWAYRRHWVGFYYWGQGTLVTVSS	low polyreactivity
QVQLVESGGGLVQAGGSLRLSCAASGSTFFEYAMGWYRKAPGKEREFVAGISWSGGITYYADSVKGRFTISRDNAKNTVYLQMNSLKPEDTAVYYCATAGGDWYGVDYWGQGTQVTVSS	low polyreactivity
QVQLVESGGGLVQAGGSLRLSCAASGSTFFFNAMGWYRQAPGKERELVAGISSSGGSTHYADSVKGRFTISRDNAKNTVYLQMNSLKPEDTAVYYCNAQQYLTFRGTGDYWGQGTQVTVSS	low polyreactivity
QVQLVESGGGLVQAGGSLRLSCAASGSTFFGNTMGWYRQAPGKERELVAAISRRGGSTYYADSVKGRFTISRDNAKNTVYLQMTSLIPEDTAVYYCAKYYQSGGYTPGKYDYWGQGTQVTVSS	high polyreactivity
QVQLVESGGGLVQAGGSLRLSCAASGSTFFGYAMGWYRQAPGKERELVASITWSSGRTNYADSVKGRFTISRDNAKNTVFLQRYSVKPEETAVYYCAQVLDHQLYIDHWVRIYGYWGQGTQVTVSS	low polyreactivity
QVQLVESGGGLVQAGGSLRLSCAASGSTFFIYAMGRYRQAPGEERELVAAITSGGTYADSVKGRFTISRDNAKNTVYLQMNSLKPVDTAVYYCNAGNNVVVDYDYWGQGTQVTVSS	low polyreactivity
QVQLVESGGGLVQAGGSLRLSCAASGSTFFPNAMGWYRQAPGKERELVAAIRWRGGTYYADSVKGRFTISRDNAKNTVYLQMNSLKQEDTAVYYCATSVKPSYDYWGQGTQVTVSS	low polyreactivity
QVQLVESGGGLVQAGGSLRLSCAASGSTFFPNDKGWYRQAPGKERELVAAISWRGGNTYADSVKGLFTISRDNAKYTVYLQMNSLKPEDTAVYYCAAEFWYTYPYLVDYWGQGTLVTVSS	low polyreactivity
QVQLVESGGGLVQAGGSLRLSCAASGSTFFPNGMGWYRLAPGKERELVAAITQDGGSTYYADSVKGRFTISRDNAKNTVSLQMNSLKPEDTAVYYCAASAGPSYEYGYWGQGTQVTVSS	low polyreactivity
QVQLVESGGGLVQAGGSLRLSCAASGSTFFRNAMGWYRQAPGKERELVASITSGGNTKYADSVKGRFTISRDNAKNTVYLQMNSLKPEDTAVYYCAAKFYHFASYSRLYNYWGQGTQVTVSS	low polyreactivity
QVQLVESGGGLVQAGGSLRLSCAASGSTFFRYAMGWYRQAPGKERELVAAISYSGDSTYYADSVKGRFTISRDNAKNTVDLQMNSLKPEDTAVYYCNAVYFRYRYNYWGQGTQVTVSS	high polyreactivity
QVQLVESGGGLVQAGGSLRLSCAASGSTFFRYAMGWYRQAPGKERELVAAITSGGNTYYADSVKGRFTISRDNAKNTVYLQMNSLIPEDTAVYYCAVVFWQLAHRYDYWGQGTQVTVSS	low polyreactivity
QVQLVESGGGLVQAGGSLRLSCAASGSTFFRYAMGWYRQAPGKERELVAAITSSGGRTYYADSVKGRFTISRDNAKNTVYLQMNSLKPEDTAVYYCADASGTSPYDYWGQGTQVTVSS	high polyreactivity
